# B1: digoxygenylated insulin-like-growth-factor-binding-protein-4 (protein)
# chain: DEAIHCPPCSEEKLARCRPPVGCEELVREPGCGCCATCALGLGMPCGVYTPRCGSGLRCYPPRGVEKPLHTLMHGQGVCMELAEIEAIQESLQPSDKDEGDHPNNSFSPCSAHDRRCLQKHFAKIRDRSTSGGKMKVNGAPREDARPVPQGSCQSELHRALERLAASQSRTHEDLYIIPIPNCDRNGNFHPKQCHPALDGQRGKCWCVDRKTGVKLPGGLEPKGELDCHQLADSFRE
# modifications: digoxigenin coupled through digoxigenin 3-O-methylcarbonyl-epsilon-aminocaproic acid-N-hydroxysuccinimide ester (amine-reactive), molar ratio 1:5; positions not given
# What was measured:
# [1] = target: PEGylated insulin-like-growth-factor I (human) (UniProt P05019); test: sandwich ELISA: PEG-IGF-I at 0.13 ng/ml captured by biotinylated anti-PEG antibody on Streptavidin plate; dig-IGFBP-4 at 100 ng/ml; anti-digoxygenin-HRP/ABTS
# [2] = target: PEGylated insulin-like-growth-factor I (human) (UniProt P05019); test: sandwich ELISA: PEG-IGF-I at 0.03 ng/ml captured by biotinylated anti-PEG antibody on Streptavidin plate; dig-IGFBP-4 at 100 ng/ml; anti-digoxygenin-HRP/ABTS; mean of three
# [3] = target: PEGylated insulin-like-growth-factor I (human) (UniProt P05019); test: sandwich ELISA: PEG-IGF-I at 2.00 ng/ml captured by biotinylated anti-PEG antibody on Streptavidin plate; dig-IGFBP-4 at 100 ng/ml; anti-digoxygenin-HRP/ABTS; mean of three
# [4] = target: PEGylated insulin-like-growth-factor I (human) (UniProt P05019); test: sandwich ELISA: PEG-IGF-I at 0.25 ng/ml captured by biotinylated anti-PEG antibody on Streptavidin plate; dig-IGFBP-4 at 100 ng/ml; anti-digoxygenin-HRP/ABTS; mean of three
# [5] = target: PEGylated insulin-like-growth-factor I (human) (UniProt P05019); test: sandwich ELISA: PEG-IGF-I at 0.25 ng/ml captured by biotinylated anti-PEG antibody on Streptavidin plate; dig-IGFBP-4 at 100 ng/ml; anti-digoxygenin-HRP/ABTS
# [6] = target: PEGylated insulin-like-growth-factor I (human) (UniProt P05019); test: sandwich ELISA: PEG-IGF-I at 2.00 ng/ml captured by biotinylated anti-PEG antibody on Streptavidin plate; dig-IGFBP-4 at 100 ng/ml; anti-digoxygenin-HRP/ABTS
# [7] = target: PEGylated insulin-like-growth-factor I (human) (UniProt P05019); test: sandwich ELISA: PEG-IGF-I at 0.50 ng/ml captured by biotinylated anti-PEG antibody on Streptavidin plate; dig-IGFBP-4 at 100 ng/ml; anti-digoxygenin-HRP/ABTS
# [8] = target: PEGylated insulin-like-growth-factor I (human) (UniProt P05019); test: sandwich ELISA: PEG-IGF-I at 1.00 ng/ml captured by biotinylated anti-PEG antibody on Streptavidin plate; dig-IGFBP-4 at 100 ng/ml; anti-digoxygenin-HRP/ABTS; mean of three
# [9] = target: PEGylated insulin-like-growth-factor I (human) (UniProt P05019); test: sandwich ELISA: PEG-IGF-I at 0.13 ng/ml captured by biotinylated anti-PEG antibody on Streptavidin plate; dig-IGFBP-4 at 100 ng/ml; anti-digoxygenin-HRP/ABTS; mean of three
# [10] = target: PEGylated insulin-like-growth-factor I (human) (UniProt P05019); test: sandwich ELISA: PEG-IGF-I at 1.00 ng/ml captured by biotinylated anti-PEG antibody on Streptavidin plate; dig-IGFBP-4 at 100 ng/ml; anti-digoxygenin-HRP/ABTS
# [11] = target: PEGylated insulin-like-growth-factor I (human) (UniProt P05019); test: sandwich ELISA: PEG-IGF-I at 0.06 ng/ml captured by biotinylated anti-PEG antibody on Streptavidin plate; dig-IGFBP-4 at 100 ng/ml; anti-digoxygenin-HRP/ABTS; mean of three
# [12] = target: PEGylated insulin-like-growth-factor I (human) (UniProt P05019); test: sandwich ELISA: PEG-IGF-I at 0.03 ng/ml captured by biotinylated anti-PEG antibody on Streptavidin plate; dig-IGFBP-4 at 100 ng/ml; anti-digoxygenin-HRP/ABTS
# [13] = target: PEGylated insulin-like-growth-factor I (human) (UniProt P05019); test: sandwich ELISA: PEG-IGF-I at 0.50 ng/ml captured by biotinylated anti-PEG antibody on Streptavidin plate; dig-IGFBP-4 at 100 ng/ml; anti-digoxygenin-HRP/ABTS; mean of three
# [14] = target: PEGylated insulin-like-growth-factor I (human) (UniProt P05019); test: sandwich ELISA: PEG-IGF-I at 0.06 ng/ml captured by biotinylated anti-PEG antibody on Streptavidin plate; dig-IGFBP-4 at 100 ng/ml; anti-digoxygenin-HRP/ABTS
binder,measurement,setting,value
B1,"OD (absorption signal), Sample No. 1",[1],0.439 OD
same,"OD (absorption signal), Sample No. 2",[1],0.428 OD
same,"OD (absorption signal), Sample No. 3",[1],0.436 OD
same,"OD (absorption signal), mean",[2],0.15 OD
same,"OD (absorption signal), mean",[3],2.03 OD
same,"OD (absorption signal), mean",[4],0.752 OD
same,"OD (absorption signal), Sample No. 1",[5],0.757 OD
same,"OD (absorption signal), Sample No. 2",[5],0.734 OD
same,"OD (absorption signal), Sample No. 3",[5],0.766 OD
same,"OD (absorption signal), Sample No. 1",[6],2.04 OD
same,"OD (absorption signal), Sample No. 2",[6],2.06 OD
same,"OD (absorption signal), Sample No. 3",[6],2 OD
same,"OD (absorption signal), Sample No. 1",[7],1.21 OD
same,"OD (absorption signal), Sample No. 2",[7],1.25 OD
same,"OD (absorption signal), Sample No. 3",[7],1.22 OD
same,"OD (absorption signal), mean",[8],1.69 OD
same,"OD (absorption signal), mean",[9],0.434 OD
same,"OD (absorption signal), Sample No. 1",[10],1.66 OD
same,"OD (absorption signal), Sample No. 2",[10],1.66 OD
same,"OD (absorption signal), Sample No. 3",[10],1.73 OD
same,"OD (absorption signal), mean",[11],0.248 OD
same,"OD (absorption signal), Sample No. 1",[12],0.141 OD
same,"OD (absorption signal), Sample No. 2",[12],0.159 OD
same,"OD (absorption signal), Sample No. 3",[12],0.149 OD
same,"OD (absorption signal), mean",[13],1.23 OD
same,"OD (absorption signal), Sample No. 1",[14],0.25 OD
same,"OD (absorption signal), Sample No. 2",[14],0.252 OD
same,"OD (absorption signal), Sample No. 3",[14],0.243 OD

# From patent US20130089875A1
